Columns and labels:
Cyno NKG2D-mFc = target: T1, Cyno NKG2D-mFc (cynomolgus monkey, UniProt P61252 78-216, limits assumed); assay: SPR, NKG2D-mFc captured, 37C, pH 7.4
T1 construct: also called cynomolgus NKG2D fused to a mouse Fc
T1 sequence (looked up): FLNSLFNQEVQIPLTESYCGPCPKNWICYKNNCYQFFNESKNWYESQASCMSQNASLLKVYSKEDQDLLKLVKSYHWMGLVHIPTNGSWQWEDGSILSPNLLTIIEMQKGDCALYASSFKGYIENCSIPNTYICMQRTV
Experimental: (§1) Binding to NKG2D was assessed by SPR using a mouse Fc capture kit (Cytiva, #BR100838) immobilized onto a CM5 chip. Human and cynomolgus NKG2D fused to a mouse Fc were captured and AB0411, AB0466, or AB0621 was titrated from 600 nM.

[1] = target: T2, soluble mouse Fc-human NKG2D dimer (human, UniProt P26718 78-216, limits assumed); assay: SPR, NKG2D-mFc captured, 37C, pH 7.4
T2 construct: also called NKG2D-mFc; human NKG2D fused to a mouse Fc
T2 sequence (looked up): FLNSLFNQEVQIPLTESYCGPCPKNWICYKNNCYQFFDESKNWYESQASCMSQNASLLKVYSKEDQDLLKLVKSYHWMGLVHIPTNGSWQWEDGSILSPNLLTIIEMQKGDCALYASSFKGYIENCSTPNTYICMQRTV
Experimental: as §1

human CEACAM5 on cells = target: T3, human CEACAM5 on cells (human, UniProt P06731 35-685); assay: flow cytometry, MKN-45 cells
T3 construct: tumour cell lines with endogenous CEACAM5, or B16F10 engineered to express hCEACAM5; also called CEACAM5 on MKN-45, HPAF-II, SK-CO-1, LoVo, BxPC-3, Kato-III, LS-174T, ZR-75-30; hCEACAM5-B16F10
T3 sequence: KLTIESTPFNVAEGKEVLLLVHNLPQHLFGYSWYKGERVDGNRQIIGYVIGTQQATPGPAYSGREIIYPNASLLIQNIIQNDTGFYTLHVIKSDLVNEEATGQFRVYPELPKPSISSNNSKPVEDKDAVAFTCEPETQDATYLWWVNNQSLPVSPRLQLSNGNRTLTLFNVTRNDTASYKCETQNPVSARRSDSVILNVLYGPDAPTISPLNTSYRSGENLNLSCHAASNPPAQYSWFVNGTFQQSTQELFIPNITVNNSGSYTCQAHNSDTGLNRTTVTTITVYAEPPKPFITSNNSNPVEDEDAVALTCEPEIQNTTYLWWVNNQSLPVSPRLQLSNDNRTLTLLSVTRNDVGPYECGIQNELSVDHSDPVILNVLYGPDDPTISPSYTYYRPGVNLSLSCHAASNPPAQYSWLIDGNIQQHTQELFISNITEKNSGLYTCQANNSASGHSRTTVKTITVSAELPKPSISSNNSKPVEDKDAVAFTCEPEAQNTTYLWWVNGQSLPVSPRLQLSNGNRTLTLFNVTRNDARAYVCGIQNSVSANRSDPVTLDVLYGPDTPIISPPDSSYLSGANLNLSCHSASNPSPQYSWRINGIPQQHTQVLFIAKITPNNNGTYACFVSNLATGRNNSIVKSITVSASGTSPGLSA
Experimental: MKN-45 and HPAF-II human cancer cell lines were diluted into FACS buffer and 100,000 cells of each cell type were seeded per well in duplicate into 96-well plates for FACS staining. The cells were washed with PBS, incubated in a 1:2000 dilution of live/dead dye in PBS for 15 minutes, and then washed with FACS buffer. AB0264, AB0411, AB0466, and AB0621 were diluted into FACS buffer, and 50 μl of each diluted TriNKET was added to the cells. After incubation on ice for 30-120 minutes, the cells were washed with FACS buffer. Anti-human IgG-Fc secondary antibody was diluted into FACS buffer, and 50 μl was added per well for detection of the bound TriNKETs. The cells were incubated for 30-60 minutes on ice and then washed with FACS buffer. 50 μl of fixation buffer was added to each well and the cells were incubated for 10 minutes at room temperature. The cells were washed with FACS buffer and resuspended in FACS buffer for analysis with ThermoFisher Attune NxT, BD FACS Celesta SN #H66034400085, or BD FACS Celesta SN #H66034400160.

CEACAM5 N-A1-B1-His = target: T4, CEACAM5 N-A1-B1-His (human, UniProt P06731 35-322, limits assumed); assay: SPR, Fab capt, 25C
T4 sequence: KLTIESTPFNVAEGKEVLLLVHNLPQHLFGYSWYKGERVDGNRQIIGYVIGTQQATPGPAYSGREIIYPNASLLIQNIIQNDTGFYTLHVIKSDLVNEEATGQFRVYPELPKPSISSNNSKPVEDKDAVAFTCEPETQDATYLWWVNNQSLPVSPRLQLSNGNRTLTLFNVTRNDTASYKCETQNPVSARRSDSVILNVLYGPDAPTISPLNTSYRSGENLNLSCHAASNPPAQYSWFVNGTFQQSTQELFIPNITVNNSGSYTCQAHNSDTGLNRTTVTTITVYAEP
Experimental: If the protein domain was an Fc fusion, AB0411, AB0466, AB0264, or AB0621 were captured using an anti-human Fab antibody (Cytiva, #28958325) immobilized onto a CM5 chip. The various hCEACAM5 protein domains (N-term, A1-B1, A2, B2, A3, or B3) were titrated over the captured TriNKETs at 50 μL/min for 180 sec of association and 300 sec of dissociation. The assay was run at 25° C. in HBS-EP+ running buffer, pH 7.4. The surface of the CM5 chip was regenerated using […] glycine pH 2.1.

Human CEACAM5 (E398) = target: T5, Human CEACAM5 (E398) (human, UniProt P06731 35-685, limits assumed); assay: SPR, anti-hFc capture, 37C, pH 6.0
T5 construct: also called hCEACAM5
T5 sequence: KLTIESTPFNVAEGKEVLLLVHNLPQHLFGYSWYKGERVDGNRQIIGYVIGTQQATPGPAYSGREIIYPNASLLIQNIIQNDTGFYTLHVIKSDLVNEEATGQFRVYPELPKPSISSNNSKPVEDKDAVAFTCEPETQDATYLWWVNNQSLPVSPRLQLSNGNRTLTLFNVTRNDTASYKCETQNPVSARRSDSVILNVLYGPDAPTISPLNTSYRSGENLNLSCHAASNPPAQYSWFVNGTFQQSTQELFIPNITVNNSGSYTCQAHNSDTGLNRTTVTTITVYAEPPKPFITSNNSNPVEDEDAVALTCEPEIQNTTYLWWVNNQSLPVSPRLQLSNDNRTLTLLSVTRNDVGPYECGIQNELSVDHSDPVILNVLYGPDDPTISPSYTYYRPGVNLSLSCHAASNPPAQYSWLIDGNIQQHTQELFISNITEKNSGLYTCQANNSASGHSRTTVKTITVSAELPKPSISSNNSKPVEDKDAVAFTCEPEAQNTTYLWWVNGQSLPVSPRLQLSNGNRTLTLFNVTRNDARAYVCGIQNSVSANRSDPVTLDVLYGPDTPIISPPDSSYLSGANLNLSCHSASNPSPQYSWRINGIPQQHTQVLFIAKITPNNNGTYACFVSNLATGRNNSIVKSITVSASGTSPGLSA
Experimental: To determine the affinity and cross-reactivity of CEACAM5 TriNKET molecules, AB0411, AB0466, or AB0621 TriNKETs were captured using an anti-human Fc capture antibody (Cytiva, #BR100839) immobilized onto a Biacore CM5 standard surface sensor chip following manufacturer instructions. Human or cynomolgus CEACAM5 were titrated over captured AB0411, AB0466, and AB0621 as 2-fold serial dilutions starting from 300 nM. Association was monitored for 300 sec and dissociation was monitored for 600 sec. The assay was run at 37° C. at pH 7.4 and 6.0. The surface of the CM5 chip was regenerated with 10 mM glycine pH 1.5 for 20 sec at 100 μL/min.

B1: AB0466 F3' CEACAM5 TriNKET (bispecific antibody, human IgG1, kappa)
chain: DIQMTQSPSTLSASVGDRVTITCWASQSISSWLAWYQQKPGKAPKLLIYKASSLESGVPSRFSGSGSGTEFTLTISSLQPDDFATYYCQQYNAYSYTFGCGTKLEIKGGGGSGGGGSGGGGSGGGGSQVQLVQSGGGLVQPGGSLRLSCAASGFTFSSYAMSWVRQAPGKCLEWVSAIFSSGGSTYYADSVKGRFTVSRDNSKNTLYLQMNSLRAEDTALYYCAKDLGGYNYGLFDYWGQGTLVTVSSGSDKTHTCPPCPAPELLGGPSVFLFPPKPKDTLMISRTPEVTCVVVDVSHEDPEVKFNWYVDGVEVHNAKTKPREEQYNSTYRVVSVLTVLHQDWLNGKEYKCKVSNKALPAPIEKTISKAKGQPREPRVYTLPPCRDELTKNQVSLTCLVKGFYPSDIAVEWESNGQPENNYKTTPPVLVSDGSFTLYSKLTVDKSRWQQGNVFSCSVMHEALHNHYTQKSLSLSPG
heavy: EVQLVESGGGLVKPGGSLRLSCAASGFTFSSYSMNWVRQAPGKGLEWVSSISSSSSYIYYADSVKGRFTISRDNAKNSLYLQMNSLRAEDTAVYYCARGAPIGAAAGWFDPWGQGTLVTVSSASTKGPSVFPLAPSSKSTSGGTAALGCLVKDYFPEPVTVSWNSGALTSGVHTFPAVLQSSGLYSLSSVVTVPSSSLGTQTYICNVNHKPSNTKVDKKVEPKSCDKTHTCPPCPAPELLGGPSVFLFPPKPKDTLMISRTPEVTCVVVDVSHEDPEVKFNWYVDGVEVHNAKTKPREEQYNSTYRVVSVLTVLHQDWLNGKEYKCKVSNKALPAPIEKTISKAKGQPREPQVCTLPPSRDELTENQVSLTCLVKGFYPSDIAVEWESNGQPENNYKTTPPVLDSDGSFFLYSWLTVDKSRWQQGNVFSCSVMHEALHNHYTQKSLSLSPG
light: DIQMTQSPSSVSASVGDRVTITCRASQGISSWLAWYQQKPGKAPKLLIYAASSLQSGVPSRFSGSGSGTDFTLTISSLQPEDFATYYCQQGVSFPRTFGGGTKVEIKRTVAAPSVFIFPPSDEQLKSGTASVVCLLNNFYPREAKVQWKVDNALQSGNSQESVTEQDSKDSTYSLSSTLTLSKADYEKHKVYACEVTHQGLSSPVTKSFNRGEC
Cyno NKG2D-mFc
  Kd: 750 nM
  koff: 0.18 s⁻¹
  kon: 230000 M⁻¹ s⁻¹
[1]
  Kd: 680 nM
  koff: 0.16 s⁻¹
  kon: 240000 M⁻¹ s⁻¹
Human CEACAM5 on cells
  EC50: 15.2 nM
  Max FOB: 111 fold over background
CEACAM5 N-A1-B1-His
  Kd: 2.1 nM
  kon: 280000 M⁻¹ s⁻¹
Human CEACAM5 (E398)
  Kd: 15 nM
  kon: 160000 M⁻¹ s⁻¹
